# Measurements reported in patent US12385902B2, “Methods for generating and screening compartmentalised peptide libraries” (UNIVERSITY OF SOUTHAMPTON, priority 2017, dated 2025).
# Entries after “also recorded” stand apart in the source; their conditions may differ.
# Tests used:
# AB42-GFP fusion = molecular target: T1, AB42-GFP fusion (Homo sapiens, UniProt P05067); assay: In vitro expression in microfluidic droplets of AB42-GFP fusion with cyclic peptide; aggregation assay read by FACS green fluorescence; assay type: biochemical; details: double emulsion droplets, IVTT 2 h at 37° C., relative to buffer alone, IVTT alone and cyclo-CA5
# T1 construct: In vitro expression in microfluidic droplets of AB42-GFP fusion with cyclo-TAFDR; made in house; host or cells: cell-free in vitro transcription/translation (IVTT)
# T1 sequence (P05067 672-713 limits assumed): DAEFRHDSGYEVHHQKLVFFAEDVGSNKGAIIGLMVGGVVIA
# Procedure: FIG. 17. In vitro expression in microfluidic droplets of AB42-GFP fusion with cyclo-TAFDR (SEQ ID NO: 7) (Matis et al.). Vector CSpDuetNpuHisAB42-GFP was utilised for the cloning of TAFDR (SEQ ID NO: 7) into MCS1. Thereafter, plasmid DNA was encapsulated into agarose droplets alongside isothermal DNA amplification reaction components and incubated overnight. Agarose beads were prepped as previously stated and re-encapsulated together with IVTT. A final emulsification step was performed to yield FACS compatible double emulsions. A negative control vector in the presence of CA5 was likewise constructed to verify cyclo-TAFDR (SEQ ID NO: 7) AB42-GFP aggregation inhibition.
# When GFP is produced as an aggregating fusion, its fluorescence is lost; however, when the aggregation is disrupted by TAFDR (SEQ ID NO: 7), the GFP can fluoresce. See Mathis et al., Nature Biomedical Engineering volume 1, pages 838-852 (2017).
# We have used the Δβ42 aggregation assay to assess the performance of the system of the invention. This assay has previously been combined with a SICLOPPS screen (Mathis et al.), so cyclo-TAFDR (SEQ ID NO: 7) is a validated positive cyclic peptide control.
# Vector CSpDuetNpuHisAB42-GFP was utilised for the cloning of TAFDR (SEQ ID NO: 7) into MCS1. […]
# [1] = tested on: Alzheimer's protein Δβ42 fused to GFP; details: Mathis et al., Nature Biomedical Engineering 2017; cited from earlier work
# Alzheimer's protein Δβ42 fused to GFP, sequence (P05067 672-713 limits assumed, stated change not applied): as the sequence (P05067 672-713 limits assumed) above
substance,measurement,setting,value
cyclo-TAFDR (cyclised),"green fluorescence (GFP) upon cyclic peptide expression, associated with disruption of Aβ aggregation",AB42-GFP fusion,positive shift in green fluorescence; also recorded: significant increase in fluorescence
same,inhibition of aggregation of Aβ42 fused to GFP,[1],inhibit aggregation
